Data from the supplement of paper PMC10567573.
± gives the standard deviation.

Experiment: protein stability index of a GFP-peptide fusion (GPS, HEK-293T) (PSI 1-6); higher = more stable
[1] = treatment: DMSO, c terminus: a fixed tail appended
[2] = treatment: MLN4924 1 uM, 8 h, c terminus: a fixed tail appended
[3] = treatment: DMSO, c terminus: native
[4] = treatment: MLN4924 1 uM, 8 h, c terminus: native
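Note: 24-mer peptide tiles fused after GFP, lentivirally expressed, FACS-sorted into six equal bins by GFP/DsRed ratio, decoded by Illumina sequencing, PSI is the read-weighted mean bin number.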

Sequence | protein stability index [1] | protein stability index [2] | protein stability index [3] | protein stability index [4]
PTSPVQGTTPQISPSTLIGSLRTL [HDAC6] | 3.77 ± 0.22 | 3.79 ± 0.26 | – | –
EETVTQDCLQLIADSETPTIQKGS [TNFSF13B] | 5.53 ± 0.36 | 5.42 ± 0.14 | – | –
SPTIIFDNWIPLLWCANILGYAVS [DHCR7] | 3.36 ± 0.13 | 3.48 ± 0.42 | – | –
PCSPDSSSVCVQGRCIHAGCDRII [ADAMTS4] | 3.84 ± 0.58 | 3.67 ± 0.25 | – | –
NEVIADINCKGRSKSNLGWTPLHL [OSBPL1A] | 2.48 ± 0.38 | 2.76 ± 0.28 | – | –
LDLKGNNLRAAGAEALGKLLQQNK [LRRC45] | 4.39 ± 0.19 | 4.27 ± 0.097 | – | –
EEAKGALLGTSGLKRRFSRLENRY [DAPK3] | 3.8 ± 0.29 | 3.96 ± 0.51 | – | –
IAAATSVLKTRFSYAFPKEFPYRM [CCNC] | 2.08 ± 0.12 | 2.58 ± 0.51 | – | –
ARRQWRDECLMRLAKLKSQVQPQ [CRYL1] | – | – | 2.9 ± 0.77 | 3.33 ± 0.73
LKKKHQLLEDARRKGMPFAQWDGP [PPFIA4] | 3.11 ± 0.37 | 3.31 ± 0.14 | – | –
TGGPDACLRCWDQRTIMKPLEYQF [TLE6] | 2.29 ± 0.17 | 2.74 ± 0.27 | – | –
EILHQQNIHQLQNRLSELEVANKD [SASS6] | 3.99 ± 0.19 | 4.13 ± 0.34 | – | –
FGKDFRKGLLKKGACYGDDACFVA [PPTC7] | 2.24 ± 0.31 | 2.53 ± 0.35 | – | –
SKTVTSTMLGVFREDPKTREEFLT [GCH1] | 4.12 ± 0.1 | 4.11 ± 0.24 | – | –
RLNAYRGYCSNQLAAKALLDQKKQ [NET1] | 3.25 ± 0.25 | 3.25 ± 0.26 | – | –
DNLLQEMLLGGSPSDAPHAHHPLH [HNF4A] | 3.97 ± 0.49 | 4 ± 0.14 | – | –
TPCGPAQACMGGRCLHMDQLQDFN [ADAMTS4] | 2.63 ± 0.25 | 2.75 ± 0.17 | – | –
TCICYLCMFQEHKNHSTVTVEEAK [TRIM29] | 2.24 ± 0.43 | 2.67 ± 0.51 | – | –
RLVNEYVELVNAACNFEPHESFFS [ZER1] | 2.34 ± 0.4 | 2.1 ± 0.48 | – | –
FSFRYQQELEEEIKELYENFCKHN [ATL3] | 2.57 ± 0.38 | 2.86 ± 0.44 | – | –
VFNAARDGKLRLLTKLLASKSKEE [FEM1C] | 2.48 ± 0.21 | 2.75 ± 0.3 | – | –
SYSFQNPSSFDPSMLLQRFSVAPH [RNF180] | 2.58 ± 0.28 | 2.68 ± 0.23 | – | –
LYGALNPQYEFKEAAGSFTSSLAQ [IRX6] | 2.64 ± 0.17 | 2.55 ± 0.27 | – | –

Sequence | protein stability index [1] | protein stability index [2] | protein stability index [3] | protein stability index [4]
PRSHFTTPAPMSSAWKTVACGGTR [MYBL2] | 2.77 ± 0.32 | 2.84 ± 0.17 | – | –
RIASRAIDNAADLLIFGKELSAIG [SNX8] | 2.34 ± 0.28 | 2.44 ± 0.38 | – | –
EVTDTGDPIVRPLWWIAPGDETAH [MYORG] | 4.25 ± 0.28 | 4.38 ± 0.35 | – | –
NASTLRTINIKCHVHDPHGQVIWG [FBXO39] | 2.17 ± 0.18 | 2.21 ± 0.21 | – | –
FVVEYHGDLIEITDAKKREALYAQ [KMT5A] | 2.65 ± 0.34 | 2.73 ± 0.41 | – | –
IDSSSSWWTNWVIPAISAVAVALM [CYB5A] | 2.64 ± 0.14 | 2.69 ± 0.15 | – | –
ESEDCKLPCNPCATTNASGNSCGP [KRT34] | 5.21 ± 0.12 | 5.25 ± 0.17 | – | –
TFTEHPMKYTSEKFLEICKLSGFM [TPRG1] | 2.35 ± 0.48 | 2.22 ± 0.5 | – | –
QSSCSGPTHTPRPADFSLGSLPGP [VENTX] | 3.83 ± 0.13 | 3.89 ± 0.36 | – | –
FLTHFILMNDVIDTSGFPDLSDNR [FBXO33] | 2.41 ± 0.47 | 2.27 ± 0.43 | – | –
AESWCYTQVKVVKFSYMWTINNFS [SPOPL] | 3.24 ± 0.56 | 3.01 ± 0.5 | – | –
IYLSTSSSKFYDLFLMDLSEGELG [RHOBTB2] | 3.38 ± 0.65 | 2.9 ± 0.39 | – | –
NKVKVLDAPVPDCLGVHCDFHQGL [FSD1] | 3.26 ± 0.078 | 3.43 ± 0.24 | – | –
MALSNHYRSEDLLDVDTAAGGFQQ [FBXO3] | 4.03 ± 0.18 | 4.04 ± 0.13 | – | –
SQFKILVSLLENNIYVHDLLTFQQ [VPS39] | 3.02 ± 0.29 | 3.21 ± 0.6 | – | –
SQLAGQVNVEMDAAPGVDLTRVLA [KRT15] | 4 ± 0.18 | 3.94 ± 0.057 | – | –
RPPFETTNLKETYRCIREARYTMP [PLK2] | 2.72 ± 0.47 | 2.31 ± 0.26 | – | –
ECPSMGTNEAACLLDNPLCADVLF [RHOBTB1] | 3.42 ± 0.34 | 3.94 ± 0.48 | – | –
YFLRGSLPWQGLKADTLKERYQKI [CSNK1G3] | 2.17 ± 0.14 | 2.14 ± 0.39 | – | –
EYLIRLFQEWEAHRNLSQLPNFAF [TCF25] | 2.32 ± 0.7 | 2.39 ± 0.24 | – | –
YNVYSTFQSHEPEFDYLKSLEIEE [PPP2R2B] | 3.86 ± 0.2 | 3.92 ± 0.26 | – | –
FAWSQGHRTVKLVPWSQCLQNFLL [WSB1] | 1.99 ± 0.83 | 2.3 ± 0.031 | – | –
ASKLKETSPLTAEKLCIYTDNSIK [CCND2] | 4 ± 0.18 | 4.05 ± 0.092 | – | –

Sequence | protein stability index [1] | protein stability index [2] | protein stability index [3] | protein stability index [4]
GESFPAQVPSGEDQTALSLEECLR [NFE2L1] | 5.08 ± 0.89 | 5.15 ± 0.076 | – | –
HFWGEKNHGFEVLYHSVKQGPIST [FCHO1] | 2.44 ± 0.52 | 2.48 ± 0.43 | – | –
SEGEAMEICSEPVAASPAPAGERR [ZNF511] | 5.38 ± 0.28 | 5.22 ± 0.27 | – | –
YQQLKLEGPGEQETKLDLISKGEE [SLC29A1] | 5.25 ± 0.28 | 5.28 ± 0.13 | – | –
GTNAWEEIATKPHEKIGFPAARRC [KLHDC10] | 3.96 ± 0.22 | 3.91 ± 0.37 | – | –
VILFSSAVYFAEADDPTSGFSSIP [KCNA3] | 3.01 ± 1.6 | 2.56 ± 1.1 | – | –
NLASYDVCSILLGTSTLLVWVGVI [MCOLN1] | 3.08 ± 0.6 | 3.19 ± 0.7 | – | –
LFSEASECMLLVFGIDVKEVDPTG [MAGEA10] | 2.3 ± 0.69 | 2.54 ± 0.21 | – | –
WKKQQKCDECGKIFSQSSALILHQ [ZNF396] | 2.54 ± 0.25 | 2.91 ± 0.49 | – | –
PLDAGEYCVPRGNRRRFRVRQPIL [BEX1] | 3.47 ± 0.42 | 3.63 ± 0.25 | – | –
IKIVLINSFGAILQGSLFGLAGLL [SLC29A1] | 2.72 ± 0.32 | 3.25 ± 0.2 | – | –
WGPWGPWGDCSRTCGGGVQFSSRD [ADAMTS4] | 2.46 ± 0.36 | 2.16 ± 0.14 | – | –
LRPSYTGLSSSSARFLSRSIPSLQ [CDC14A] | 3.04 ± 0.38 | 2.85 ± 0.29 | – | –
PPSALDQLSRLNITYPMLFKLTNK [UFD1] | 2.48 ± 0.27 | 2.96 ± 0.095 | – | –
GNTESELKKLAEENPDLQEAYIAK [GDAP1] | 5.51 ± 0.26 | 5.5 ± 0.26 | – | –
LRTRGRTRGWVQTLARMSRRTRGP [C6orf223] | 3.6 ± 0.23 | 3.97 ± 0.27 | – | –
KPPPNSEGEQGPNGSQNSSYSQS [CCNC] | – | – | 5.36 ± 0.24 | 5.41 ± 0.27
SQMFPSSKARTKSLLGDDVFSTMA [FBF1] | 2.89 ± 0.26 | 2.97 ± 0.21 | – | –
SKLKGAAVKLADFGLAIEVEGEQQ [CAMK2A] | 4.06 ± 0.11 | 4.4 ± 0.31 | – | –
ADRQCQLTFGPDSRHCPQLPPPCA [ADAMTS4] | 4.08 ± 0.16 | 4.08 ± 0.081 | – | –
GIPGWGFSGWISALVVPKGNTAVS [SCAMP3] | 2.78 ± 0.72 | 2.41 ± 0.52 | – | –
MSFLSRQQPPPPRRAGAACTLRQK [WEE1] | 3.94 ± 0.2 | 3.88 ± 0.24 | – | –
RMLFWACSTNKPEGYRVSQALREN [FAF2] | 2.27 ± 0.16 | 2.46 ± 0.18 | – | –

Sequence | protein stability index [1] | protein stability index [2] | protein stability index [3] | protein stability index [4]
RDRFKSFQRRNMIEPRERAKFKRK [NOP53] | 4.11 ± 0.47 | 4.54 ± 0.35 | – | –
KPKPPPNSEGEQGPNGSQNSSYSQ [CCNC] | 5.43 ± 0.14 | 5.55 ± 0.18 | – | –
VTFRDVAVDFTQEEWGQLDPTQRI [ZNF8] | 3.8 ± 0.36 | 3.82 ± 0.33 | – | –
HTPGGQNQEILLPGGITSHQLLGL [TNXB] | 3.33 ± 0.22 | 3.47 ± 0.31 | – | –
SPSNVQKWLLWTEHQYRLPPMGKA [SPDEF] | 2.42 ± 0.2 | 2.61 ± 0.19 | – | –
VKLNVGGSLHYTTLRTLTGQDTML [KCTD13] | 2.45 ± 0.47 | 2.27 ± 0.28 | – | –
HLTVHKRIHTGERPYMCKECGKAF [ZNF8] | 2.73 ± 0.28 | 3.27 ± 0.38 | – | –
LVNMGISVVSYTLKDIHDDQDYLH [FLOT1] | 2.11 ± 0.24 | 2.22 ± 0.31 | – | –
GCSQFRLAVLDWNQRAMDLYKALG [SAT2] | 2.2 ± 0.39 | 2.02 ± 0.18 | – | –
KRKRVKQRINTYVFVGNQLIPQPL [PCMTD1] | 2.38 ± 0.17 | 2.73 ± 0.35 | – | –
TINNFSFCREEMGEVLKSSTFSSG [SPOPL] | 2.33 ± 0.21 | 2.53 ± 0.28 | – | –
RPGPSASAASSAAAGEPLECPTCG [RNF208] | 5.3 ± 0.2 | 5.3 ± 0.28 | – | –
QGDSADETTAHKTEEENSDSDSD [CMTM3] | – | – | 5.6 ± 0.2 | 5.7 ± 0.23
TAYSRLNETQPIDLSGLPLQSSKN [RNF180] | 3.76 ± 0.27 | 3.86 ± 0.25 | – | –
VKYNSCADRPFSAPWWFWLSLTGV [POMT2] | 2.59 ± 0.35 | 2.72 ± 0.6 | – | –
CIKIWDVTSQATLLTITKAHSNAI [WDR88] | 2.28 ± 0.33 | 2.61 ± 0.28 | – | –
ALKERADSLAKEIQYLKDLIEEVR [ATF4] | 4.49 ± 0.36 | 4.59 ± 0.057 | – | –
LSEVLAQPQGALAPPNCESDSKTG [DNAAF3] | 5.37 ± 0.14 | 5.52 ± 0.096 | – | –
SHRAAGSGVSDYDYLDLDKMSLYS [TRIM9] | 3.4 ± 0.21 | 3.44 ± 0.17 | – | –
QERSRVLNQVADLLEQSLEEFAQA [ALDH8A1] | 3.94 ± 0.28 | 4.26 ± 0.19 | – | –
